*1 amine or outer side, *2 acyl side, *3 side chain or, on linkers, in order; H or OH if unused. Where no end group is shown, it is not given here. Side-chain parts run from the residue outwards. [ ]: non-standard residue; d: D form. The star is where a group is joined. γGlu = O=C(O)[C@H](CCC(=O)[*:2])N[*:1]; Palmitoyl = CCCCCCCCCCCCCCCC(=O)*; Aib = CC(C)(N)C(=O)O
T1: human GIP receptor (human, UniProt P48546 22-466)
T1 sequence (looked up): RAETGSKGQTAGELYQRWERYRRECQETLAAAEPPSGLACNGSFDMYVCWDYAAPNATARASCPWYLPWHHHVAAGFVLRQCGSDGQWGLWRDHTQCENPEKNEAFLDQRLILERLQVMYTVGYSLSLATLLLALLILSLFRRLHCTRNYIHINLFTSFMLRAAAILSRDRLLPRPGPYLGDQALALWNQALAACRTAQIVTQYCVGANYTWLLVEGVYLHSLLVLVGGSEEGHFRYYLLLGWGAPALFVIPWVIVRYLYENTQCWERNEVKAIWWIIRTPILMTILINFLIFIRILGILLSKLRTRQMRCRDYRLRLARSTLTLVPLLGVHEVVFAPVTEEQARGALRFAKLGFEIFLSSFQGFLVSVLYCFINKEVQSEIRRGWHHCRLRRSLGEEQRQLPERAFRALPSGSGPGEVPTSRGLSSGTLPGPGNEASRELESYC

B1: exendin-4 peptide analogue SEQ ID NO: 10 (peptide)
peptide: Y[Aib]QGTFTSDLSIQK([γGlu-Palmitoyl])EKYAA[Aib]EFIEWLKNTGPSSGAPPPS-NH2
modifications: N-terminus assumed
SMILES: CCCCCCCCCCCCCCCC(=O)N[C@@H](CCC(=O)NCCCC[C@H](NC(=O)[C@H](CCC(N)=O)NC(=O)[C@@H](NC(=O)[C@H](CO)NC(=O)[C@H](CC(C)C)NC(=O)[C@H](CC(=O)O)NC(=O)[C@H](CO)NC(=O)[C@@H](NC(=O)[C@H](Cc1ccccc1)NC(=O)[C@@H](NC(=O)CNC(=O)[C@H](CCC(N)=O)NC(=O)C(C)(C)NC(=O)[C@@H](N)Cc1ccc(O)cc1)[C@@H](C)O)[C@@H](C)O)[C@@H](C)CC)C(=O)N[C@@H](CCC(=O)O)C(=O)N[C@@H](CCCCN)C(=O)N[C@@H](Cc1ccc(O)cc1)C(=O)N[C@@H](C)C(=O)N[C@@H](C)C(=O)NC(C)(C)C(=O)N[C@@H](CCC(=O)O)C(=O)N[C@@H](Cc1ccccc1)C(=O)N[C@H](C(=O)N[C@@H](CCC(=O)O)C(=O)N[C@@H](Cc1c[nH]c2ccccc12)C(=O)N[C@@H](CC(C)C)C(=O)N[C@@H](CCCCN)C(=O)N[C@@H](CC(N)=O)C(=O)N[C@H](C(=O)NCC(=O)N1CCC[C@H]1C(=O)N[C@@H](CO)C(=O)N[C@@H](CO)C(=O)NCC(=O)N[C@@H](C)C(=O)N1CCC[C@H]1C(=O)N1CCC[C@H]1C(=O)N1CCC[C@H]1C(=O)N[C@@H](CO)C(N)=O)[C@@H](C)O)[C@@H](C)CC)C(=O)O
B2: exendin-4 peptide analogue SEQ ID NO: 48 (peptide)
peptide: Y[Aib]QGTFTSDLSIQK([γGlu-Palmitoyl])DSEAAQDFIEWLKAGGPSSGAPPPS-NH2
modifications: N-terminus assumed
SMILES: CCCCCCCCCCCCCCCC(=O)N[C@@H](CCC(=O)NCCCC[C@H](NC(=O)[C@H](CCC(N)=O)NC(=O)[C@@H](NC(=O)[C@H](CO)NC(=O)[C@H](CC(C)C)NC(=O)[C@H](CC(=O)O)NC(=O)[C@H](CO)NC(=O)[C@@H](NC(=O)[C@H](Cc1ccccc1)NC(=O)[C@@H](NC(=O)CNC(=O)[C@H](CCC(N)=O)NC(=O)C(C)(C)NC(=O)[C@@H](N)Cc1ccc(O)cc1)[C@@H](C)O)[C@@H](C)O)[C@@H](C)CC)C(=O)N[C@@H](CC(=O)O)C(=O)N[C@@H](CO)C(=O)N[C@@H](CCC(=O)O)C(=O)N[C@@H](C)C(=O)N[C@@H](C)C(=O)N[C@@H](CCC(N)=O)C(=O)N[C@@H](CC(=O)O)C(=O)N[C@@H](Cc1ccccc1)C(=O)N[C@H](C(=O)N[C@@H](CCC(=O)O)C(=O)N[C@@H](Cc1c[nH]c2ccccc12)C(=O)N[C@@H](CC(C)C)C(=O)N[C@@H](CCCCN)C(=O)N[C@@H](C)C(=O)NCC(=O)NCC(=O)N1CCC[C@H]1C(=O)N[C@@H](CO)C(=O)N[C@@H](CO)C(=O)NCC(=O)N[C@@H](C)C(=O)N1CCC[C@H]1C(=O)N1CCC[C@H]1C(=O)N1CCC[C@H]1C(=O)N[C@@H](CO)C(N)=O)[C@@H](C)CC)C(=O)O
B3: exendin-4 peptide analogue SEQ ID NO: 50 (peptide)
peptide: Y[Aib]QGTFTSDLSIQK([γGlu-Palmitoyl])DSRAVQDFIEWLKAGGPSSGAPPPS-NH2
modifications: N-terminus assumed
SMILES: CCCCCCCCCCCCCCCC(=O)N[C@@H](CCC(=O)NCCCC[C@H](NC(=O)[C@H](CCC(N)=O)NC(=O)[C@@H](NC(=O)[C@H](CO)NC(=O)[C@H](CC(C)C)NC(=O)[C@H](CC(=O)O)NC(=O)[C@H](CO)NC(=O)[C@@H](NC(=O)[C@H](Cc1ccccc1)NC(=O)[C@@H](NC(=O)CNC(=O)[C@H](CCC(N)=O)NC(=O)C(C)(C)NC(=O)[C@@H](N)Cc1ccc(O)cc1)[C@@H](C)O)[C@@H](C)O)[C@@H](C)CC)C(=O)N[C@@H](CC(=O)O)C(=O)N[C@@H](CO)C(=O)N[C@@H](CCCNC(=N)N)C(=O)N[C@@H](C)C(=O)N[C@H](C(=O)N[C@@H](CCC(N)=O)C(=O)N[C@@H](CC(=O)O)C(=O)N[C@@H](Cc1ccccc1)C(=O)N[C@H](C(=O)N[C@@H](CCC(=O)O)C(=O)N[C@@H](Cc1c[nH]c2ccccc12)C(=O)N[C@@H](CC(C)C)C(=O)N[C@@H](CCCCN)C(=O)N[C@@H](C)C(=O)NCC(=O)NCC(=O)N1CCC[C@H]1C(=O)N[C@@H](CO)C(=O)N[C@@H](CO)C(=O)NCC(=O)N[C@@H](C)C(=O)N1CCC[C@H]1C(=O)N1CCC[C@H]1C(=O)N1CCC[C@H]1C(=O)N[C@@H](CO)C(N)=O)[C@@H](C)CC)C(C)C)C(=O)O
B4: exendin-4 peptide analogue SEQ ID NO: 49 (peptide)
peptide: Y[Aib]QGTFTSDLSIQK([γGlu-Palmitoyl])DSIAAQDFIEWLKAGGPSSGAPPPS-NH2
modifications: N-terminus assumed
SMILES: CCCCCCCCCCCCCCCC(=O)N[C@@H](CCC(=O)NCCCC[C@H](NC(=O)[C@H](CCC(N)=O)NC(=O)[C@@H](NC(=O)[C@H](CO)NC(=O)[C@H](CC(C)C)NC(=O)[C@H](CC(=O)O)NC(=O)[C@H](CO)NC(=O)[C@@H](NC(=O)[C@H](Cc1ccccc1)NC(=O)[C@@H](NC(=O)CNC(=O)[C@H](CCC(N)=O)NC(=O)C(C)(C)NC(=O)[C@@H](N)Cc1ccc(O)cc1)[C@@H](C)O)[C@@H](C)O)[C@@H](C)CC)C(=O)N[C@@H](CC(=O)O)C(=O)N[C@@H](CO)C(=O)N[C@H](C(=O)N[C@@H](C)C(=O)N[C@@H](C)C(=O)N[C@@H](CCC(N)=O)C(=O)N[C@@H](CC(=O)O)C(=O)N[C@@H](Cc1ccccc1)C(=O)N[C@H](C(=O)N[C@@H](CCC(=O)O)C(=O)N[C@@H](Cc1c[nH]c2ccccc12)C(=O)N[C@@H](CC(C)C)C(=O)N[C@@H](CCCCN)C(=O)N[C@@H](C)C(=O)NCC(=O)NCC(=O)N1CCC[C@H]1C(=O)N[C@@H](CO)C(=O)N[C@@H](CO)C(=O)NCC(=O)N[C@@H](C)C(=O)N1CCC[C@H]1C(=O)N1CCC[C@H]1C(=O)N1CCC[C@H]1C(=O)N[C@@H](CO)C(N)=O)[C@@H](C)CC)[C@@H](C)CC)C(=O)O
B5: exendin-4 peptide analogue SEQ ID NO: 51 (peptide)
peptide: Y[Aib]QGTFTSDLSIQK([γGlu-Palmitoyl])DSRAQQDFIEWLKAGGPSSGAPPPS-NH2
modifications: N-terminus assumed
SMILES: CCCCCCCCCCCCCCCC(=O)N[C@@H](CCC(=O)NCCCC[C@H](NC(=O)[C@H](CCC(N)=O)NC(=O)[C@@H](NC(=O)[C@H](CO)NC(=O)[C@H](CC(C)C)NC(=O)[C@H](CC(=O)O)NC(=O)[C@H](CO)NC(=O)[C@@H](NC(=O)[C@H](Cc1ccccc1)NC(=O)[C@@H](NC(=O)CNC(=O)[C@H](CCC(N)=O)NC(=O)C(C)(C)NC(=O)[C@@H](N)Cc1ccc(O)cc1)[C@@H](C)O)[C@@H](C)O)[C@@H](C)CC)C(=O)N[C@@H](CC(=O)O)C(=O)N[C@@H](CO)C(=O)N[C@@H](CCCNC(=N)N)C(=O)N[C@@H](C)C(=O)N[C@@H](CCC(N)=O)C(=O)N[C@@H](CCC(N)=O)C(=O)N[C@@H](CC(=O)O)C(=O)N[C@@H](Cc1ccccc1)C(=O)N[C@H](C(=O)N[C@@H](CCC(=O)O)C(=O)N[C@@H](Cc1c[nH]c2ccccc12)C(=O)N[C@@H](CC(C)C)C(=O)N[C@@H](CCCCN)C(=O)N[C@@H](C)C(=O)NCC(=O)NCC(=O)N1CCC[C@H]1C(=O)N[C@@H](CO)C(=O)N[C@@H](CO)C(=O)NCC(=O)N[C@@H](C)C(=O)N1CCC[C@H]1C(=O)N1CCC[C@H]1C(=O)N1CCC[C@H]1C(=O)N[C@@H](CO)C(N)=O)[C@@H](C)CC)C(=O)O
B6: exendin-4 peptide analogue SEQ ID NO: 47 (peptide)
peptide: Y[Aib]QGTFTSDLSIQK([γGlu-Palmitoyl])DKRAVQLFIEWLKNGGPSSGAPPPS-NH2
modifications: N-terminus assumed
SMILES: CCCCCCCCCCCCCCCC(=O)N[C@@H](CCC(=O)NCCCC[C@H](NC(=O)[C@H](CCC(N)=O)NC(=O)[C@@H](NC(=O)[C@H](CO)NC(=O)[C@H](CC(C)C)NC(=O)[C@H](CC(=O)O)NC(=O)[C@H](CO)NC(=O)[C@@H](NC(=O)[C@H](Cc1ccccc1)NC(=O)[C@@H](NC(=O)CNC(=O)[C@H](CCC(N)=O)NC(=O)C(C)(C)NC(=O)[C@@H](N)Cc1ccc(O)cc1)[C@@H](C)O)[C@@H](C)O)[C@@H](C)CC)C(=O)N[C@@H](CC(=O)O)C(=O)N[C@@H](CCCCN)C(=O)N[C@@H](CCCNC(=N)N)C(=O)N[C@@H](C)C(=O)N[C@H](C(=O)N[C@@H](CCC(N)=O)C(=O)N[C@@H](CC(C)C)C(=O)N[C@@H](Cc1ccccc1)C(=O)N[C@H](C(=O)N[C@@H](CCC(=O)O)C(=O)N[C@@H](Cc1c[nH]c2ccccc12)C(=O)N[C@@H](CC(C)C)C(=O)N[C@@H](CCCCN)C(=O)N[C@@H](CC(N)=O)C(=O)NCC(=O)NCC(=O)N1CCC[C@H]1C(=O)N[C@@H](CO)C(=O)N[C@@H](CO)C(=O)NCC(=O)N[C@@H](C)C(=O)N1CCC[C@H]1C(=O)N1CCC[C@H]1C(=O)N1CCC[C@H]1C(=O)N[C@@H](CO)C(N)=O)[C@@H](C)CC)C(C)C)C(=O)O

These binders were tested against human GLP-1 receptor (human, UniProt P43220 24-463) (assay: cell-based or functional assay).

Compared with B1, B2 is 1.9-fold higher in “EC50 hGLP-1 R” value: 0.0052 nM for the first, 0.0101 nM for the second.

Going from B3 to B4, the “EC50 hGLP-1 R” value rises from 0.01 nM to 0.0172 nM (1.7-fold).

Compared with B5, B6 is 3.7-fold higher in “EC50 hGLP-1 R” value: 0.0042 nM for the first, 0.0156 nM for the second.

The binders below were run against human glucagon receptor (human, UniProt P47871 26-477) (assay: cell-based or functional assay).
human glucagon receptor, sequence (P47871 26-477): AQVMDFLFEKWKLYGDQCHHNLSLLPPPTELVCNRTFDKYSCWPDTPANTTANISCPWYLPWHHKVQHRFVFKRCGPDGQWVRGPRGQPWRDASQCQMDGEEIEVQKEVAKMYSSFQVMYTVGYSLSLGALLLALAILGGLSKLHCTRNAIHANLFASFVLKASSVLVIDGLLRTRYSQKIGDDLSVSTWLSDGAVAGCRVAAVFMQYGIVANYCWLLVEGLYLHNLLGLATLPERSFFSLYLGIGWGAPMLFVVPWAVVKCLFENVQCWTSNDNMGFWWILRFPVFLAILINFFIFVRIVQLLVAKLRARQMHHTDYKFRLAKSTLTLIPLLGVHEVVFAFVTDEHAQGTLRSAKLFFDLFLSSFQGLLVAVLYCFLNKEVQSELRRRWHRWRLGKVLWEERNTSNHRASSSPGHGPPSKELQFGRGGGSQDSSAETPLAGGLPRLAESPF

B1 and B2 are within 1.5-fold of each other in “EC50 hGLUC R” value: 0.667 nM for the first, 0.478 nM for the second.

First: B3
Second: B4
The “EC50 hGLUC R” value of the first is 8.8-fold higher: 1.72 nM for the first, 0.195 nM for the second.

First: B5
Second: B6
The “EC50 hGLUC R” value of the first is 4.2-fold lower: 0.571 nM for the first, 2.39 nM for the second.

The binders below were run against T1, human GIP receptor (assay: cell-based or functional assay).

B1 and B2 are within 1.5-fold of each other in “EC50 hGIP R” value: 0.0144 nM for the first, 0.0158 nM for the second.

B3 and B4 are within 1.5-fold of each other in “EC50 hGIP R” value: 0.0479 nM for the first, 0.0456 nM for the second.

Going from B5 to B6, the “EC50 hGIP R” value rises from 0.0063 nM to 0.0442 nM (7-fold).
